We go through two molecules from article PMC11985770, “The SlERF4-9-SlCDF1/3-SlAEC2/SlPIN5 module regulates tomato root morphogenesis”.

This data set has as its target SlERF4-9-GST (Solanum lycopersicum (tomato), UniProt A0A3Q7G811 1-264). As to the kind of experiment: EMSA; Beyotime Chemiluminescent EMSA Kit; 100x cold probe as competitor; buffer, salt, pH and temperature not stated. The following applies: protein: recombinant; tags: GST (pGEX6P-1); label: biotin on both strands (3' end); blunt. (Mobility shift assays separate free from complexed probe on a gel.)

Chain of SlERF4-9-GST (A0A3Q7G811 entry or part of it): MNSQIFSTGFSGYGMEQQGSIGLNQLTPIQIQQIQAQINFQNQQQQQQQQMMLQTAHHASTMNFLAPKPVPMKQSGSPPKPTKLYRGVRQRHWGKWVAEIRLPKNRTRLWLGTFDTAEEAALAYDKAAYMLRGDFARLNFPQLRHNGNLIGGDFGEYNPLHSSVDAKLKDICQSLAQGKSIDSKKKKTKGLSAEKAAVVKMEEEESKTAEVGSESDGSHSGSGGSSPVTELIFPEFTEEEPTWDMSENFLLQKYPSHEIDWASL

B1: proCDF1 probe (P1 site) (dsDNA)
DNA 1: ACGACGTTGGCCGGCGGCGGCGAATTCACGGCGGCTAAACGAGTTTT
DNA 2: AAAACTCGTTTAGCCGCCGTGAATTCGCCGCCGCCGGCCAACGTCGT
On to B1, for which the binding result was “binds”.

B2: proCDF3 probe (P2 site) (dsDNA)
DNA 1: CGTCAACTCGCCGGCGGCGACTTCGTCGGA
DNA 2: TCCGACGAAGTCGCCGCCGGCGAGTTGACG
As for B2, the binding result is on record as “binds”.
